Laboratory results taken from patent US20240116985A1 (published 2024).
Starred links: 1 amine or outer side, 2 acyl side, 3 side chain; linkers in the order of their positions; H or OH if unused. Positions of bridges follow the written chain, without caps; N, C: chain ends. Non-standard residues stand in square brackets, D forms with d. Primed or numbered codes have the meaning given here. B5(11) = 2,2-bis(4-pentenyl)glycine = 2-amino-2-(pent-4-en-1-yl)hept-6-enoic acid (stitching residue, bears both staples), C=CCCCC(CCCC=C)(N[*:1])C(=O)[*:2]; B5(16) = 2-amino-2-(pent-4-en-1-yl)hept-6-enoic acid = 2,2-bis(4-pentenyl)glycine (stitching residue), C=CCCCC(CCCC=C)(N[*:1])C(=O)[*:2]; B5(24) = 2-amino-2-(pent-4-en-1-yl)hept-6-enoic acid, 2,2-bis(4-pentenyl)glycine (stitching residue), C=CCCCC(CCCC=C)(N[*:1])C(=O)[*:2]; B5(21) = 2-amino-2-(pent-4-en-1-yl)hept-6-enoic acid, bis(4-pentenyl)glycine (stitching residue), C=CCCCC(CCCC=C)(N[*:1])C(=O)[*:2]; B5(9) = 2-amino-2-(pent-4-en-1-yl)hept-6-enoic acid (2,2-bis(4-pentenyl)glycine), C=CCCCC(CCCC=C)(N[*:1])C(=O)[*:2]; Phe(2-Cl) = N[C@@H](Cc1ccccc1Cl)C(=O)O; Phe(3-F) = N[C@@H](Cc1cccc(F)c1)C(=O)O; Bta = N[C@@H](Cc1csc2ccccc12)C(=O)O; αAllylPro = C=CC[C@@]1(C(=O)O)CCCN1; NMeH = CN[C@@H](Cc1c[nH]cn1)C(=O)O; 2Thi = N[C@@H](Cc1cccs1)C(=O)O; S8 = C=CCCCCCC[C@](C)(N)C(=O)O

T1: full-length beta-Catenin (Uniprot ID P35222) (Homo sapiens (Human), UniProt P35222 2-781)
T1 construct: Tags of the recombinant protein are not described for the FP assay; also called bCat; B-Catenin
T1 sequence: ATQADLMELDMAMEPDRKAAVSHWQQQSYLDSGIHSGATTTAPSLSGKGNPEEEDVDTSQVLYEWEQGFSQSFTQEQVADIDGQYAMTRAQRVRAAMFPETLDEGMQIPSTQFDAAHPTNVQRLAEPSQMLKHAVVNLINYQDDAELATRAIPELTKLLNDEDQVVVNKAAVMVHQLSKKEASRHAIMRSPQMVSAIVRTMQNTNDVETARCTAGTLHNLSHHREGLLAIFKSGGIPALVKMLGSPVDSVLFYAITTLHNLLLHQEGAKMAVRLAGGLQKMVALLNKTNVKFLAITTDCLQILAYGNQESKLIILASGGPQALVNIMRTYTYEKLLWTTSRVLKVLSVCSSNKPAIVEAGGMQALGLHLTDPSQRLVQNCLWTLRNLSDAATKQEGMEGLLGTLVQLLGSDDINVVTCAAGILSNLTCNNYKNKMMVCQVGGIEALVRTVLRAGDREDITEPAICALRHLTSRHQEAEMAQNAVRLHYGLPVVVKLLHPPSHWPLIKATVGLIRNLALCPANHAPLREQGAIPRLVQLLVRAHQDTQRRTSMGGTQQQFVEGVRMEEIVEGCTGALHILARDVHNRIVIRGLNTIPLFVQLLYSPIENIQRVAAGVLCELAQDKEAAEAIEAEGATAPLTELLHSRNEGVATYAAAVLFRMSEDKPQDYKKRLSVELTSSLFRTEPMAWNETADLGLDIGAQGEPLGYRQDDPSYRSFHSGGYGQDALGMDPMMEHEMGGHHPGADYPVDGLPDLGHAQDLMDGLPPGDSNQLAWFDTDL

T2: full-length beta-Catenin (Uniprot ID P35222) (Homo sapiens (Human), UniProt P35222 1-781)
T2 construct: The assay protocol says full-length beta-Catenin (Uniprot ID P35222); tags are not described; also called bCat; B-Catenin
T2 sequence: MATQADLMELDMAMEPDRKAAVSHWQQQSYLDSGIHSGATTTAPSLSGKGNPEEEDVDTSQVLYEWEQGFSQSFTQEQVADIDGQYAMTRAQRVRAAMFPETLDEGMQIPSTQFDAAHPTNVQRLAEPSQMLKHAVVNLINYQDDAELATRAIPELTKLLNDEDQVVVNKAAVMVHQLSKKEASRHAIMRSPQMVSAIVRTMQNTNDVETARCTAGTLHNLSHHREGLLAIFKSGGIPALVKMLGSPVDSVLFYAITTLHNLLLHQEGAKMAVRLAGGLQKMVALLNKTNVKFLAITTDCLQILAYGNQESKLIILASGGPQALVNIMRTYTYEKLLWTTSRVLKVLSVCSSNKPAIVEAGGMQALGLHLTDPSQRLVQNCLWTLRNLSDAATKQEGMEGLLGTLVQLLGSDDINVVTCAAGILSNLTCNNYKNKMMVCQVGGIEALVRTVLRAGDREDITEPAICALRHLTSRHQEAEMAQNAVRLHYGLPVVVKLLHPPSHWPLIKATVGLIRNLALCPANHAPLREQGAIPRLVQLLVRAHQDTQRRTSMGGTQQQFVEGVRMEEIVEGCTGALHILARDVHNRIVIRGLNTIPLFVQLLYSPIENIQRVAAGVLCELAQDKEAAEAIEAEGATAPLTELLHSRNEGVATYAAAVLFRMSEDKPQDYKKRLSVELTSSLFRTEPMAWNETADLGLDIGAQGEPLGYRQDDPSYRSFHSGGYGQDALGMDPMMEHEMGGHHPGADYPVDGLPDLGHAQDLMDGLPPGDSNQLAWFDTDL

T3: full-length beta-Catenin (Uniprot ID P35222) (Homo sapiens (Human), UniProt P35222 1-781)
T3 construct: also called bCat; B-Catenin
T3 sequence: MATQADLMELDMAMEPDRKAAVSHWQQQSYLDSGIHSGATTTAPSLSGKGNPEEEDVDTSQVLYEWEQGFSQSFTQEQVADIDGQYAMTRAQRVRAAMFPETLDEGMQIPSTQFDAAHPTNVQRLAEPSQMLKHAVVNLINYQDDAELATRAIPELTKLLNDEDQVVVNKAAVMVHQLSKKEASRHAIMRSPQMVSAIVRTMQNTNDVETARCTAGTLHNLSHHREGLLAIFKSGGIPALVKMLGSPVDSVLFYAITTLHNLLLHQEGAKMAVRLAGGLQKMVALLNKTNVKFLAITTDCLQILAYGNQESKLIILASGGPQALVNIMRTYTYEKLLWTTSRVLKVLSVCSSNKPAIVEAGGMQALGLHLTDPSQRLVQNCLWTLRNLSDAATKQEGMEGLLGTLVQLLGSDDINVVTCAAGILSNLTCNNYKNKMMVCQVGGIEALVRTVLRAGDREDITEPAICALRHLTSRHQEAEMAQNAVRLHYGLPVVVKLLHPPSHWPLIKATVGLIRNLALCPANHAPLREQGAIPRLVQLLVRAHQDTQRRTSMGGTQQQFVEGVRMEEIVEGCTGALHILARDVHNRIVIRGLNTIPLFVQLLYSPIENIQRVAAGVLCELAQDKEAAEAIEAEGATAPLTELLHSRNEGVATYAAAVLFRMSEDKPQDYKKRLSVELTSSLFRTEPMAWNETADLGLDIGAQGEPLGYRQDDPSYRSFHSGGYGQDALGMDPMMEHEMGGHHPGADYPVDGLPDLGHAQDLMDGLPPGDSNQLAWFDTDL


Tests used:
[1] = molecular target: T1, full-length beta-Catenin (Uniprot ID …); assay: fluorescence polarization competition; full-length beta-catenin, competitor 5FAM-TCF4 10-53
Method: (§1) The plate was incubated protected from light for 60 minutes at 20° C. prior to read. Reads were performed on a CLARIOstar plate reader (BMG Labtech) in duplicate, and data were fitted to a 1:1 binding model with hill slope using an in-house script. All provided concentrations are final concentrations.

[2] = molecular target: T2, full-length beta-Catenin (Uniprot ID …); assay: fluorescence polarization competition: full-length beta-catenin + 5FAM-TCF4(10-53) probe, peptide titrated
Method: as §1

[3] = molecular target: T3, full-length beta-Catenin (Uniprot ID …); assay: fluorescence polarization competition; full-length beta-catenin, competitor 5FAM-TCF4(10-53) probe
Method: as §1

Row | Binder | IC50 [1] | other results
1 | XDIXDEAAFQXFXS (not fully specified; As printed: Ac-PL3-Asp-Ile-B5-Asp-Glu-Ala-Ala-Phe-Gln-S8-Phe-BztA-Ser-NH2; N-terminal Ac, C-terminal NH2; PL3 (1), B5 (4), S8 (11), BztA (13); staples PL3-B5 and B5-S8 by olefin metathesis, Stapled peptide composition; also called Ac-PL3-Asp-Ile-B5-Asp-Glu-Ala-Ala-Phe-Gln-S8-Phe-BztA-Ser-NH2) [I-639] | 109 nM | 
2 | Ac-[αAllylPro]DI[B5(9)]DELAFQ[S8]F[Bta]Q-NH2 (staple 1-4, 4-11, Stapled peptide composition; also called Ac-PL3-Asp-Ile-B5-Asp-Glu-Leu-Ala-Phe-Gln-S8-Phe-BztA-Gln-NH2) [I-647] | 445 nM | 
3 | Ac-[αAllylPro]DI[B5(16)]DESAFQ[S8]F[Bta]Q-NH2 (staple 1-4, 4-11, Stapled peptide composition; also called Ac-PL3-Asp-Ile-B5-Asp-Glu-Ser-Ala-Phe-Gln-S8-Phe-BztA-Gln-NH2) [I-651] | 186 nM | 
4 | Ac-[αAllylPro]DA[B5(21)]DEAA[2Thi]Q[S8][Phe(3-F)]WQ-NH2 (staple 1-4, 4-11, Stapled (stitched) peptide with non-natural residues) [I-450] |  | EC50 [2]: 3720 nM
5 | Ac-[αAllylPro]DA[B5(24)]DEAAFN[S8][Phe(2-Cl)][Bta]Q-NH2 (staple 1-4, 4-11, Stapled (stitched) peptide with non-natural residues) [I-435] |  | EC50 [2]: 70 nM
6 | XDLXDEAAFNXFXH (not fully specified; N-terminal Ac; C-terminal NH2; PL3 at 1, B5 at 4, S8 at 11, BztA at 13, dHis (D-His) at 14; stapled PL3-B5 and B5-S8 by olefin metathesis, Stapled peptide; same description as I-744, later eluting staple isomer composition; also called Ac-PL3-Asp-Leu-B5-Asp-Glu-Ala-Ala-Phe-Asn-S8-Phe-BztA-dHis-NH2) [I-745] |  | IC50 [3]: 80 nM
7 | Ac-[αAllylPro]DL[B5(11)]DEAAFN[S8]F[Bta][NMeH]-NH2 (staple 1-4, 4-11; not fully specified, Stapled peptide; same description as I-746, later eluting staple isomer composition; also called Ac-PL3-Asp-Leu-B5-Asp-Glu-Ala-Ala-Phe-Asn-S8-Phe-BztA-NMeHis-NH2) [I-747] |  | IC50 [3]: 2390 nM

Continued, in another order:

Row | IC50 [1] | Binder | other results
8 | 137 nM | Ac-[αAllylPro]DI[B5(16)]DEFAFQ[S8]F[Bta]Q-NH2 (staple 1-4, 4-11, Stapled peptide composition; also called Ac-PL3-Asp-Ile-B5-Asp-Glu-Phe-Ala-Phe-Gln-S8-Phe-BztA-Gln-NH2) [I-650] | 
9 | 209 nM | Ac-[αAllylPro]DI[B5(9)]DEFAFQ[S8]F[Bta]Q-NH2 (staple 1-4, 4-11, Stapled peptide composition; also called Ac-PL3-Asp-Ile-B5-Asp-Glu-Phe-Ala-Phe-Gln-S8-Phe-BztA-Gln-NH2) [I-649] | 
10 | 3880 nM | XDIXDEAAFQXFXP (not fully specified; As printed: Ac-PL3-Asp-Ile-B5-Asp-Glu-Ala-Ala-Phe-Gln-S8-Phe-BztA-Pro-NH2; N-terminal Ac, C-terminal NH2; PL3 (1), B5 (4), S8 (11), BztA (13); staples PL3-B5 and B5-S8 by olefin metathesis, Stapled peptide composition; also called Ac-PL3-Asp-Ile-B5-Asp-Glu-Ala-Ala-Phe-Gln-S8-Phe-BztA-Pro-NH2) [I-638] | 
